Where two headings read alike, the source gives them in different places.

Common to all, as to assay: dynamic light scattering
Experiment [1] addresses full-length BLM protein (human) (UniProt P54132).
Experiment [2] has the same target. This is another data set of the same source.
The target is the same in experiment [3]. This is another data set of the same source.

In the case of “full-length BLM protein, P54132 1-1417 (enzyme; other documents disagree on this pair)”, the stoichiometry N in experiment [1] was determined as 3. In experiment [2], this substance yielded a % mass in the high-order oligomer peak (radius 9.9 nm) of 96.1%, a % mass in the high-order oligomer peak (radius 10.1 nm) of 97.2%, a % mass in the high-order oligomer peak (radius 12.6 nm) of 62.2% and a % mass in the high-order oligomer peak (radius 12.7 nm) of 57.8%. Further, in experiment [2], the % mass in the high-order oligomer peak (radius 20.3 nm) came out at 90.5%, the % mass in the low-order oligomer peak (radius 8.2 nm) is 37.8% and the stoichiometry N was 6. Besides, the stoichiometry N in experiment [3] came out at 6.

One may read the stoichiometry N as the number of molecules, sites or subunits per partner or assembly.

For the origin of these results see article PMC3479192.
